Laboratory results: US20250236667A1, “ANTIBODIES TO MUTANT CALRETICULIN AND USES THEREOF” (CENTRAL ADELAIDE LOCAL HEALTH NETWORK INC, priority 2021, published 2025)

Tests used:
Assay in all cases: Western blot of STAT/ERK signalling
Type in all cases: cell-based, human
[1] = test system: phospho-STAT1,3,5 and phospho-ERK in TF-1 TpoR CALR^del52 cells; details: 10 or 20 μg/mL; 8 hours
Procedure: (§1) A. Cell extracts blotted for phospho-STAT5, total STAT5, phospho-ERK, total ERK and actin from TF-1 TpoR cells after incubation with 10 or 20 μg/mL 4D7 or IgG for 4 or 8 hours, in presence of TPO. The last line indicates TPO withdrawal. B. Similar experiment using TPO-independent TF-1 TpoR CALR^del61 cells. C. Similar experiment using TPO-independent TF-1 TpoR CALR^del52 cells at 8 hours. D. Fraction of apoptotic sub-Go population of TF-1 TpoR CALR^del61 cells after 48 hours of 4D7 or IgG treatment (n=3). E. Western blot showing caspase 3 cleavage occurring within 24 hours of TPO withdrawal in TPO dependent TF-1 TpoR cells. An increase in cleaved caspase 3 is observed after 48 hours of treatment with 20 μg/mL 4D7 in TF-1 TpoR CALR^del61 and TF-1 TpoR CALR^del52 cells. F. Western blot of TpoR immunoprecipitation under non-reducing conditions showing associated CALR 50 kDa monomers and 100 kDa dimers (arrowheads) present only in TF-1 TpoR CALR^del61 disrupted by 8 hour treatment with 20 μg/mL 4D7 but not PBS or 20 μg/mL IgG. CALR monomers & dimers are detectable by polyclonal anti-wild type CALR or anti-mutant CALR monoclonal antibodies. Arrowheads, detected mutant CALR protein: asterisk, non-specific bands. G. Proposed model for the mechanism of action of 4D7 on mutant CALR. In the active form, mutant CALR dimers bound to TpoR form a constitutively activate receptor complex which is disrupted by 4D7 with blockade in STAT and ERK signalling. (Adapted from Masubuchi et al. (2020), Rivera et al (2021)). […]
(§2) A. Cell extracts blotted for phospho-STAT1, total STAT1, phospho-STAT3, total STAT3 and actin from TF-1 TpoR cells after incubation with 10 or 20 μg/mL 4D7 or IgG for 4 or 8 hours as indicated. […] Cells were harvested and fixed and stained with propidium iodide and their DNA contents were analysed. […] E. Western blot showing specific co-immunoprecipitation of mutant CALR^del61 cells with TpoR anti-FLAG antibody under reducing conditions detected by total and mutant specific CALR antibodies. Arrowheads represent detected CALR protein. […]

[2] = test system: phospho-STAT1,3,5 and phospho-ERK in TF-1 TpoR CALR^del61 cells; details: 10 or 20 μg/mL; 4 and 8 hours
Procedure: as §1, §2

[3] = test system: phospho-STAT1,3,5 and phospho-ERK in TF-1 cells expressing TpoR alone; details: 10 or 20 μg/mL for 4 or 8 hours, in presence of TPO
Procedure: as §1, §2

B1: 4D7: rat monoclonal IgG2a antibody against the mutant CALR neoepitope; VH SEQ ID NO: 5, VL SEQ ID NO: 7 (antibody, listed as Rattus rattus, V domains shown)
VH: QVQLQQSGAELAKPGSSVKISCKASGYTFTNYDMSWIKQRPGQALEWIGAINPGNGVTDYNEKFRGKATLTVDKSSSTAFMQLSSLTPEDTAVYHCAREYRDNYGYFDYWGQGVMVTVSS
VL: DIVLTQTPVSLSVTLGDQASISCRSSQSLEYSDGYTYLDWFLQKPGQSPQLLIYEVSSRFSGVPDRFIGRGSGTDFTLKISRVEPEDLGVYYCFQATHDPFTFGSGTKLEIK
- constitutive factor-independent phospho-STAT1,3,5 and phospho-ERK [1]: blockade
- constitutive factor-independent phospho-STAT1,3,5 and phospho-ERK [2]: blockade
- inhibition of signalling [3]: no inhibition of signalling
